The text below walks through data of patent US20160136234A1.

Some targets named below: CaMKIδ (h) (human) (UniProt Q8IU85); EphB3 (h) (human) (UniProt P54753); MST3 (h) (human) (UniProt Q9Y6E0).
What all share (assay): cell-based or functional assay
For the next assay, the target named is T1, NLK (h) (human) (UniProt Q9UBE8).
T1 sequence (looked up): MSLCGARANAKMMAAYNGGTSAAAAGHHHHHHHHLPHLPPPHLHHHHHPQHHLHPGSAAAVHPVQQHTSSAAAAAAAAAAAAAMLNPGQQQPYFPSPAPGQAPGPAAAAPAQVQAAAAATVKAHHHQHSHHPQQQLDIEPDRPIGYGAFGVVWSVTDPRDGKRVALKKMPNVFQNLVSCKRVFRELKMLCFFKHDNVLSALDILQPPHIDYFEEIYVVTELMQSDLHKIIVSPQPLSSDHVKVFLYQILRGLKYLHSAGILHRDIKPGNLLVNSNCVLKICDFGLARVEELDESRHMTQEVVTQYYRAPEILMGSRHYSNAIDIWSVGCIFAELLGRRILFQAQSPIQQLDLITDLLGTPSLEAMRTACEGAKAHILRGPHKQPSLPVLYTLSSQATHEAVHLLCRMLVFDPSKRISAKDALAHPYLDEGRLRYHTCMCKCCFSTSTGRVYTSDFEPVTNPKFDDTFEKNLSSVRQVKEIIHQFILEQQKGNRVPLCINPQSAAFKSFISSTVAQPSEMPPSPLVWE

The target in another assay is T2, SAPK4 (h) (human) (UniProt O15264).
T2 sequence (looked up): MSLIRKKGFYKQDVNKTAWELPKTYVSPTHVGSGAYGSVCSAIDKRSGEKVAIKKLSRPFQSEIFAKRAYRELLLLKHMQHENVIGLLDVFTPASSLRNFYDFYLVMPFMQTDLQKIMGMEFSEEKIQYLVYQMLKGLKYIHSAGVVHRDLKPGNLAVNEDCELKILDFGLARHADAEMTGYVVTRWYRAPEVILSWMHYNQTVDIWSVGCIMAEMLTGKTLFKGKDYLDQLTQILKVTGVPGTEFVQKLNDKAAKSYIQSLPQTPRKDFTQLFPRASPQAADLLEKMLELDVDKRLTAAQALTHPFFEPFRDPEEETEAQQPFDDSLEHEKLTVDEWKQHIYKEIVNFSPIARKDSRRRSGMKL

Chain of EphB3 (h) (human) (P54753 581-998 limits assumed): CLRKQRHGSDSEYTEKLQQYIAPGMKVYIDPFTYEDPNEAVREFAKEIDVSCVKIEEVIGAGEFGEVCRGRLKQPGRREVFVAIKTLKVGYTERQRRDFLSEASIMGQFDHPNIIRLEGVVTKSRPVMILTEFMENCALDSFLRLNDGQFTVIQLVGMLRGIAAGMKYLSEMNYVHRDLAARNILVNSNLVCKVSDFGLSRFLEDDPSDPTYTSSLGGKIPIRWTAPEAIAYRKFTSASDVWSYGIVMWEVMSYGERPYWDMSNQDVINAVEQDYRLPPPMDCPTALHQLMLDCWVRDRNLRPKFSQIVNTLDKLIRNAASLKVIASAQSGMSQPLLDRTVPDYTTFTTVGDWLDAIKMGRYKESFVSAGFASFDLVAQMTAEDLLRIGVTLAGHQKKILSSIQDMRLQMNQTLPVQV

MMI-0300 (peptide): the % activity at 100 µM with CaMKIδ (h) (human) came out at 10%; with EphB3 (h) (human), 62%; with MST3 (h) (human) it was 45%; with NLK (h) (human) it was 87%; in the assay with SAPK4 (h) (human) it was 96%.
